{"source": "patent US20080274096", "key": {"[1]": {"molecular_target": "Amyloid β1-40 peptide (Bachem)"}, "[2]": {"molecular_target": "amyloid β peptide1-40 in guinea pig plasma, Q60495"}, "[3]": {"molecular_target": "amyloid β peptide1-42 in guinea pig plasma, Q60495"}}, "note": "“Also recorded” adds a separate entry of the source."}
{"protein": "Recombinant human Neprilysin (R&D Systems) (protein) YDDGICKSSDCIKSAARLIQNMDATTEPCTDFFKYACGGWLKRNVIPETSSRYGNFDILRDELEVVLKDVLQEPKTEDIVAVQKAKALYRSCINESAIDSRGGEPLLKLLPDIYGWPVATENWEQKYGASWTAEKAIAQLNSKYGKKVLINLFVGTDDKNSVNHVIHIDQPRLGLPSRDYYECTGIYKEACTAYVDFMISVARLIRQEERLPIDENQLALEMNKVMELEKEIANATAKPEDRNDPMLLYNKMTLAQIQNNFSLEINGKPFSWLNFTNEIMSTVNISITNEEDVVVYAPEYLTKLKPILTKYSARDLQNLMSWRFIMDLVSSLSRTYKESRNAFRKALYGTTSETATWRRCANYVNGNMENAVGRLYVEAAFAGESKHVVEDLIAQIREVFIQTLDDLTWMDAETKKRAEEKALAIKERIGYPDDIVSNDNKLNNEYLELNYKEDEYFENIIQNLKFSQSKQLKKLREKVDKDEWISGAAVVNAFYSSGRNQIVFPAGILQPPFFSAQQSNSLNYGGIGMVIGHEITHGFDDNGRNFNKDGDLVDWWTQQSASNFKEQSQCMVYQYGNFSWDLAGGQHLNGINTLGENIADNGGLGQAYRAYQNYIKKNGEEKLLPGLDLNHKQLFFLNFAQVWCGTYRPEYAVNSIKTDVHSPGNFRIIGTLQNSAEFSEAFHCRKNSYMNPEKKCRVW", "values": [{"measurement": "Amyloid β1-40 peptide degradation (percentage of peptide left, electrochemiluminescence immunoassay)", "setting": "[1]", "result": "degraded 88% of Amyloid β1-40 peptide (1 nM) after 3 hours incubation at 37 °C"}, {"measurement": "degradation of Aβ1-40 in guinea pig plasma (ELISA)", "setting": "[2]", "result": "Neprilysin degrades Aβ1-40 and Aβ1-42 in a time-dependent manner; also recorded: Neprilysin degrades Aβ1-40 in a dose dependent manner"}, {"measurement": "degradation of Aβ1-42 in guinea pig plasma (ELISA)", "setting": "[3]", "result": "Neprilysin degrades Aβ1-40 and Aβ1-42 in a time-dependent manner"}]}
